According to the DeepSol protein solubility set:

Assay: soluble on expression in E. coli; label from the status in PepcDB or PDB records

Sequence | soluble on expression in E. coli
MGSDKIHHHHHHMTKKILFCATVDYHFKAFHLPYFKWFKQMGWEVHVAANGQTKLPYVDEKFSIPIRRSPFDPQNLAVYRQLKKVIDTYEYDIVHCHTPVGGVLARLAARQARRHGTKVLYTAHGFHFCKGAPMKNWLLYYPVEKWLSAYTDCLITINEEDYIRAKGLQRPGGRTQKIHGIGVNTERFRPVSPIEQQRLREKHGFREDDFILVYPAELNLNKNQKQLIEAAALLKEKIPSLRLVFAGEGAMEHTYQTLAEKLGASAHVCFYGFCSDIHELIQLADVSVASSIREGLGMNVLEGMAAEQPAIATDNRGHREIIRDGENGFLIKIGDSAAFARRIEQLYHKPELCRKLGQEGRKTALRFSEARTVEEMADIYSAYMDMDTKEKSV | not soluble
RPAIRKRLLKPKVLDSSPRALVGHRAEVLEDVGATSGQVRLDGSIWSARSMDPTHTFAEGEIVSVIDIQGTTAIVWKEA | soluble
MNLRKPSAWTALALSISTGPAAAGTVTSATLAASTLSPDCLEYKVVGICYWLLCTPFGCKVKTSTKVRHYVPDAVVSSYSNTGENPWVEVSSLSSPTSFAQDGGDGTTSHNNEDNLAKFKNTDVIGHPGGATFSKFASASGYACQGAATPYMPYLLSTLDTIAWRYGVPESAYPEALIPGQREVGGLTSGDMWGSLYPRSGFIHQADDYKAAAVIAQRAGDVVTRRGQIHIYQPLLAKPQSGYWPAGELIETDASTGKWQELTPTLSQSCAVFPNSQPRVQATDGGYAWALWRPYSCCKRQGQTFLGSTDFQLEHHHHHH | not soluble
GMTTTQPEAKDRISSLPVPDATQVPEGVRKLWAKAEANIGFVPNVFRAQAVNGEQFLAWWNYFNLLLNKEGYLTNAERELVAVVVSGVNRCLYCAVSHGAALREFLGDPQKADAVAVNWRHADLTEREQALAAYAEKLTRHPAEVTAADLEPLRAVGLDDHQIMELVQVIGMFNLTNRVSSALGFVPNPEYYRQAR | soluble
MDNIKIIVASDSIGETAELVARAGVSQFNPKQCKHEFLRYPYIESFENVDEVIQVAKDTNAIIVYTLIKPEIKKYMISKVNEHALKSVDIMGPLMELLSNSIEETPYYEPGMVHRLDDAYFKKIDAIEFAVKYDDGKDPKGLPKADIVLLGISRTSKTPLSQYLAHKSYKVMNIPIVPEVTPPDGLFNVDPSKCIALKISEEKLNRIRKERLKQLGLGDKARYATEARIQEELDYFEKLVDKIGCPVIDVSDKAIEETANDIIHFIEQNKSKLEHHHHHH | soluble
MIALFNKLLDWFKALFWKEEMELTLVGLQYSGKTTFVNVIASGQFNEDMIPTVGFNMRKITKGNVTIKLWDIGGQPRFRSMWERYCRGVSAIVYMVDAADQEKIEASKNELHNLLDKPQLQGIPVLVLGNKRDLPGALDEKELIEKMNLSAIQDREICCYSISCKEKDNIDITLQWLIQHSKSRRS | soluble
VDMSNVVKTYDLQDGSKVHVFKDGKMGMENKFGKSMNMPEGKVMETRDGTKIIMKGNEIFRLDEALRKGHSEGG | soluble
MGSDKIHHHHHHMKVSEFDYELPPELIAQEPVEPRDASRLMVLHRKTQRIEHRIFREIIEYLEPGDLLVLNVSKVIPARLYARKKTGASIEILLIERLEEGIWKCLVRPGQKVKKGTELVIDEDLSAVCLGRGEDGTRILKFQPQDDRLIFEKGRTPLPPYIKNEVPLERYQTVYAKEEGSVAAPTAGLHFTPELIEKLKKKGVQFAEVVLHVGIGTFRPVKVEEVEKHKMHEEFYQVPKETVRKLRETRERGNRIVAVGTTTVRTLETIARLPEQEEYVGKTDLFIYPPFEFKLVDALVTNFHLPRSTLLMLVAAFAGKDFVMEAYREAVKRRYRFFSFGDAMLIL | soluble
MSEANIIHSRYGLRCEKLDKPLNLGWGLDNSAVLHCPGELPTGWLCDALDQIFIAAPQLSAVALPWAEWREEPQALTLFGQVKSDIIHRTAFWQLPLWLSSPANRASGEMVFDAEREIYFPQRPPRPQGEVYRRYDPRIRRMLSFRIADPVSDAERFTRWMNDPRVEYFWEQSGSLEVQTAYLERQLTGKHAFPLIGCFDDRPFSYFEIYWAAEDRIGRHYSWQPFDRGLHLLVGEQQWRGAHYVQSWLRGLTHYLLLDEPRTQRTVLEPRTDNQRLFRHLEPAGYRTIKEFDFPHKRSRMVMADRHHFFTEVGL | not soluble
MEKQNIAVILARQNSKGLPLKNLRKMNGISLLGHTINAAISSKCFDRIIVSTDGGLIAEEAKNFGVEVVLRPAELASDTASSISGVIHALETIGSNSGTVTLLQPTSPLRTGAHIREAFSLFDEKIKGSVVSACPMEHHPLKTLLQINNGEYAPMRHLSDLEQPRQQLPQAFRPNGAIYINDTASLIANNCFFIAPTKLYIMSHQDSIDIDTELDLQQAENILNHKES | soluble
QPSLLDRLVDDEPWRRSEAPEAALLTHAGLRAAVLRDLRWLLNTVNLASSQDLAPYRHVPASSVNFGVRAMAGRRMSEIDWVDVETSIRDAIAAFEPRILESSVEVRCVSDTRTLEHHNVLSLEIRGMLWCVPHPREFLFRTDIDLE | not soluble
MGKVNVAKLRYMSRDDFRVLTAVEMGMKNHEIVPGSLIASIASLKHGGCNKVLRELVKHKLIAWERTKTVQGYRLTNAGYDYLALKTLSSRQVVESVGNQMGVGKESDIYIVANEEGQQFALKLHRLGRTSFRNLKNKRDYHKYRHNVSWLYLSRLSAMKEFAYMKALYERKFPVPKPIDYNRHAVVMELINGYPLCQIHHVEDPASVYDEAMELIVKLANHGLIHGDFNEFNLILDESDHITMIDFPQMVSTSHPNAEWYFDRDVKCIKDFFMKRFSYESELFPTFKDIRREDTLDVEVSASGYTKEMQADDELLHPLGPDDKNIETKEGSEFSFSDGEVAEKAEVYGSENESERNCLEESEGCYCRSSGDPEQIKEDSLSEESADARSFEMTEFNQALEEIKGQVVENNSVTEFSEEKNRTENYNRQDGQRVQGGVPAGSDEYEDECPHLIALSSLNREFRPFRDEENVGAMNQYRTRTLSITSSGSAVSCSTIPPELVKQKVKRQLTKQQKSAVRRRLQKGEANIFTKQRRENMQNIKSSLEAASFWGE | not soluble
MAPRSYWKGYLKLSLVTCPVTLMPATSEAERVRFRTLNGRTGHPVVSRYLDAETGDVVDDDDQVKGYPRSETEHVILEEEELDAVALESARTIDIDCFVPSDEIAWIWYDRPHYLMPADPIGEEAFAVIREAMRATDRSGVARLVLGGRERAVLLMPRGEGIILWTLRYGDEVRPEEAYFGDLAAGKPDPKALTLVKRLIEERTRTWEPGMVEDPVQENLLELIRSKKPKKRSRKAGAKAPKGGDNVVSIMDALRKSIEGKG | not soluble
MTKKSTKSEAASKTKKSGVPETGAQGVRAGGADHADAAHLGTVNNALVNHHYLEEKEFQTVAETLQRNLATTISLYLKFKKYHWDIRGRFFRDLHLAYDEFIAEIFPSIDEQAERLVALGGSPLAAPADLARYSTVQVPQETVRDARTQVADLVQDLSRVGKGYRDDSQACDEANDPVTADMYNGYAATIDKIRWMLQAIMDDERLD | soluble
MGSDKIHHHHHHMGVDPFERNKILGRGINIGNALEAPNEGDWGVVIKDEFFDIIKEAGFSHVRIPIRWSTHAYAFPPYKIMDRFFKRVDEVINGALKRGLAVVINIHHYEELMNDPEEHKERFLALWKQIADRYKDYPETLFFEILNEPHGNLTPEKWNELLEEALKVIRSIDKKHTIIIGTAEWGGISALEKLSVPKWEKNSIVTIHYYNPFEFTHQGAEWVEGSEKWLGRKWGSPDDQKHLIEEFNFIEEWSKKNKRPIYIGEFGAYRKADLESRIKWTSFVVREMEKRRWSWAYWEFCSGFGVYDTLRKTWNKDLLEALIGGDSIE | not soluble
GMSDPRTQPLEIRPLMISRVMEVDWADGHTSRLTFEHLRVECPCAECKGHTPDQAQIVTGKEHVSVVEVVPVGHYAVQLHFSDGHNTGIFTWEYLRRLDAE | soluble
MGSDKIHHHHHHMSLKKQIPIIFENTHYFIVNKPPGIPSQPPDCRTWGRTHPNLDPTPLLERFKAIYYSHREVELCRTVHRLDHCVTGGMLIAKTKDGSVKFSRFLQKGGNNGYKLQRKYVAIVESSGRFNKPNNYEIKYGPKYNFLISHGGREITKFKEVDENCIVLQLVTGKKHQIRNHVSQILNQPILNDKRHGSTVNFPELFNDQIALHSACIITKIGLQTKTHLIPMEHNNTGQLWSRKYVNEEGEFTLPIKEVLLENWDQ | not soluble
MSLSFSTLMDKRERGSFDSQFLIAMPGLDDGNFARSVIYICAHSDAGAMGFIINRPQQITFTDILLHLKLVDSNDAIMLPNRTREFPIQCGGPVESGRGFVLHSDDYLSESSIPVSDDISLTATLDIVRAISNGRGPQKATMMLGYAGWGPGQLENEIANNGWLNCPAAEELIFDRGLDNKYERALALMGVDARMLSTDAGHAEGHHHHHH | not soluble
MGSDKIHHHHHHMTSILPLPDPQPSDATNTDTSSLNWEEELDSAIFSFEDIQAELNYKQAQSALRNLVGNIDLSSQEKAGLESEIADLETMLGKLDSMVVQIAAFGMVGRGKSSLLNALVGESVFETGPLHGVTRAAQRVNWRISEEAIGETERALRVTLPSVGRSQVELIDTPGLDEIDGETRTALAEQIAKQADLILFVISGDMTKIEHEALSQLREAGKPIILVFNKVDQYPEADRMAIYQKIRDERVRELLTPLEIVMAAASPLVKTAVRRPDGSRGVQVRTGNAQVAELQVKILEILQREGKALVALNTMLFADNVNEQLVQRKLMIREQNANQLIWKAVMTKAVAIALNPVTVVDILSSIVIDVSLILGLSKLYGIPMTEAGAVQLLQKIALSMGGIGVSELLANLGLSGLKTLLGISATATAGVAIGPYISVALTQAGVAGVSSYAIGQVTTVYLANGATWGPDGPKAVINRILSTLDENSILNRIKDELQVKLRRE | not soluble
LSYPNATESVYGLTRYSTNDEAIAGVNNESSITPAKFTVALNNVFETRVSTESSNGVIKISSLPQALAGADDTTAMTPLKTQQLAVKLIAQIAPSKNAATESEQGVIQLATVAQARQGTLREGYAISPYTFMNSTATEEYKGVIKLGTQSEVNSNNASVAVTGATLNGRGSTTSMRGVVKLTTTAGSQSGGDASSALAWNADVIHQRGGQTINGTLRINNTLTIASGGANITGTVNMTGGYIQGKRVVTQNEIDRTIPVGAIMMWAADSLPSDAWRFCHGGTVSASDCPLYASRIGTRYGGSSSNPGLPDMR | soluble
MEGMDPLAVLAESRLLPLLTVRGGEDLLGLARVLEEEGVGALEITLRTEKGLEALKALRKSGLLLGAGTVRSPKEAEAALEAGAAFLVSPGLLEEVAALAQARGVPYLPGVLTPTEVERALALGLSALKFFPAEPFQGVRVLRAYAEVFPEVRFLPTGGIKEEHLPHYAALPNLLAVGGSWLLQGNLEAVRAKVRAAKALLSPQAPG | soluble
MNNKEKGDFGEKVAVNYLLSKGAKILEKNYRLKIGEIDIIAKMEDEIIFVEVKSRSNIKFGYPCESVSFKKRKKIIGVASYYIIKNNLNNTPIRFDVIEVYLLEKRINHIMNAF | not soluble
MDPKPINEGMLLEDHDHGMPEEEEITEDDMNGIHNIEEDTRTISEIAMELHHPNKSQVLLDQERFLPIANVVRIMKTQMDPQAKLAKDAKECAQECVSEFISFIASEAAEICNITKRKTITADDLLTAMEATGFDNYAEPMRIFLQKYRQAHKITGPIHRTHPDYVRPPQFQMDPFVRPLFFDTEQGRRCTETQYVINGSEIVKNAPLGEEWNEQTGTLNTRADGYYMEEPMEPMPMEEVEIEEHEEIIEQDSLGAIALEQQGQMQIYVDPKTKQHFAAKETPNGMELYPLIIQDTPLQLENVSGPNQFVMNMPDGRAIPHGMGQEEPQPVSSSSVMRKIGQNPSSYAQQHHHVSHVEQHDDVEYEEEEEVDQVEEDTVPVPIAPRPAATRVQPKRTPTKRKK | not soluble
